Measured values taken from patent US20180161335.

Experiments:
[1] = molecular target: ARF3, purified from E. coli, preloaded with BODIPY FL GDP, P61204
[2] = molecular target: the other GTPases tested
[3] = molecular target: T1, RAB11A, N-terminal 6x His-tag, purified from E. coli, preloaded with BODIPY FL GDP, P62491
T1 chain: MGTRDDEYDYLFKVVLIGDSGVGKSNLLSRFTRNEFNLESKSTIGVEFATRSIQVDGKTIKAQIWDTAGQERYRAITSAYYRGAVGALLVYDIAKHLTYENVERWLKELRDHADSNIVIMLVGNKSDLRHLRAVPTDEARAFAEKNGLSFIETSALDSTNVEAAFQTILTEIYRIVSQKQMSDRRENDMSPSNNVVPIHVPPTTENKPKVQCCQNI

[4] = molecular target: T2, RAB5A, N-terminal 6x His-tag, purified from E. coli, preloaded with BODIPY FL GDP, P20339
T2 chain: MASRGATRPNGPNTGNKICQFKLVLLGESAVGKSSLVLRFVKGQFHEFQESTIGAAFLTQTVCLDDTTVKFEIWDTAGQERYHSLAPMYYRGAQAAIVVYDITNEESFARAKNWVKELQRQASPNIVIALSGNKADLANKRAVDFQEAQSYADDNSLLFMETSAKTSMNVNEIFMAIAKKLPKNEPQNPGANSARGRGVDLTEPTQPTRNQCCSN

Chain of ARF3, purified from E. coli, preloaded with BODIPY FL GDP, P61204 (P61204 whole entry): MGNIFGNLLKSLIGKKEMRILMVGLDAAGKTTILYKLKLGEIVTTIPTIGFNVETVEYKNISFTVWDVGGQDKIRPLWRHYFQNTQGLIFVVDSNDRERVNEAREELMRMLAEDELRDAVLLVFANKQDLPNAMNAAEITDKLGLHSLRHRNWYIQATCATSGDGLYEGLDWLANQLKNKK

B1: C9ORF72 isoform B, 2x HA-tagged, in HEK cell lysate (protein)
chain: MSTLCPPPSPAVAKTEIALSGKSPLLAATFAYWDNILGPRVRHIWAPKTEQVLLSDGEITFLANHTLNGEILRNAESGAIDVKFFVLSEKGVIIVSLIFDGNWNGDRSTYGLSIILPQTELSFYLPLHRVCVDRLTHIIRKGRIWMHKERQENVQKIILEGTERMEDQGQSIIPMLTGEVIPVMELLSSMKSHSVPEEIDIADTVLNDDDIGDSCHEGFLLK
In the case of B1, the “guanine exchange activity (BODIPY-GDP fluorescence)” value (from here on “guanine exchange activity”) [1] is reported as “C9ORF72 isoforms A and B stimulated guanine exchange on ARF3” and the “guanine exchange activity” value [2] is reported as “Significant activity was not observed using both C9ORF72 isoforms on the other GTPases tested”.

B2: DENND2D, 2x HA-tagged, in HEK cell lysate (protein)
chain: MEGQVVGRVFRLFQRRLLQLRAGPPQDNSGEALKEPERAQEHSLPNFAGGQHFFEYLLVVSLKKKRSEDDYEPIITYQFPKRENLLRGQQEEEERLLKAIPLFCFPDGNEWASLTEYPRETFSFVLTNVDGSRKIGYCRRLLPAGPGPRLPKVYCIISCIGCFGLFSKILDEVEKRHQISMAVIYPFMQGLREAAFPAPGKTVTLKSFIPDSGTEFISLTRPLDSHLEHVDFSSLLHCLSFEQILQIFASAVLERKIIFLAEGLSTLSQCIHAAAALLYPFSWAHTYIPVVPESLLATVCCPTPFMVGVQMRFQQEVMDSPMEEVLLVNLCEGTFLMSVGDEKDILPPKLQDDILDSLGQGINELKTAEQINEHVSGPFVQFFVKIVGHYASYIKREANGQGHFQERSFCKALTSKTNRRFVKKFVKTQLFSLFIQEAEKSKNPPAGYFQQKILEYEEQKKQKKPREKTVK
With B2 the “guanine exchange activity” value [3] was “neither RABEX-5, DENN2D, or DsRed displayed activity on RAB11A” and the “guanine exchange activity” value [4] was “did not display guanine exchange activity on RAB5A”.

B3: RABEX5, 2x HA-tagged, in HEK cell lysate (protein)
chain: MSLKSERRGIHVDQSDLLCKKGCGYYGNPAWQGFCSKCWREEYHKARQKQIQEDWELAERLQREEEEAFASSQSSQGAQSLTFSKFEEKKTNEKTRKVTTVKKFFSASSRVGSKKEIQEAKAPSPSINRQTSIETDRVSKEFIEFLKTFHKTGQEIYKQTKLFLEGMHYKRDLSIEEQSECAQDFYHNVAERMQTRGKVPPERVEKIMDQIEKYIMTRLYKYVFCPETTDDEKKDLAIQKRIRALRWVTPQMLCVPVNEDIPEVSDMVVKAITDIIEMDSKRVPRDKLACITKCSKHIFNAIKITKNEPASADDFLPTLIYIVLKGNPPRLQSNIQYITRFCNPSRLMTGEDGYYFTNLCCAVAFIEKLDAQSLNLSQEDFDRYMSGQTSPRKQEAESWSPDACLGVKQMYKNLDLLSQLNERQERIMNEAKKLEKDLIDWTDGIAREVQDIVEKYPLEIKPPNQPLAAIDSENVENDKLPPPLQPQVYAG
For B3, the “guanine exchange activity” value [3] was “neither RABEX-5, DENN2D, or DsRed displayed activity on RAB11A”.
